Where a chain is given by its changes, count along the chain named.

In test [1] the target is T1, human Sortilin Fc fusion protein (human, UniProt Q99523 78-755).
T1 construct: whole entry named; also called hSort-Fc
Put plainly: ForteBio, avid.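 Also: whole IgG captured on AHQ sensors, then contacted with Sortilin Fc fusion antigen at 100 nM, followed by an off-rate phase in buffer.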 A general note: In BLI a coated tip is dipped into the sample, and binding shifts an interference pattern.
Description: (§1) The affinity for the Sortilin antibodies was determined by measuring their KD by ForteBio. […] Briefly, ForteBio affinity measurements were performed by loading IgGs on-line onto AHQ sensors. Sensors were equilibrated off-line in assay buffer for 30 min and then monitored on-line for 60 seconds for baseline establishment. For avid binding measurement, sensors with loaded IgGs were exposed to 100 nM antigen (human or mouse Sortilin Fc fusion) for 3, afterwards they were transferred to assay buffer for 3 min for off-rate measurement.
(§2) The binding affinity of each anti-Sortilin antibody was determined by measuring their KD by ForteBio or MSD-SET at room temperature. […] Briefly, ForteBio affinity measurements were performed by loading IgGs on-line onto AHQ sensors. Sensors were equilibrated off-line in assay buffer for 30 min and then monitored on-line for 60 seconds for baseline establishment. Sensors with loaded IgGs were exposed to 100 nM antigen for 5 minutes, then transferred to assay buffer for 5 min for off-rate measurement. Kinetics were analyzed using the 1:1 binding model.

The target of test [2] is T2, mouse Sortilin expressed on 293 / HEK293T cells (mouse, UniProt Q6PHU5 74-825).
T2 construct: full-length recombinant mouse Sortilin; also called mSort; msSort
Put plainly: FACS, 293 cells.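 Also: antibodies at 10 µg/ml bound to cells for 1 h on ice, detected with PE-labelled anti-human secondary antibody by flow cytometry, reported as mean fluorescence intensity.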 A general note: In flow cytometry, cells or beads pass a laser one at a time.
Description: (§3) Cells were harvested, plated at 10⁵/ml in a 96 well plate, washed, and incubated in 100 μl PBS containing 10 μg/ml Mab and 2% FBS for 1 hour in ice. Cells were then washed twice and incubated in 100 μl PBS+2% FBS containing 5 μg/ml PE-conjugated anti-human secondary antibody for 30 minutes in ice. Cells were washed twice in cold PBS and data was acquired on a BD FACS Canto. Data analysis and calculation of MFI values was performed with FlowJo (TreeStar) software version 10.0.7.

For test [3], the target named is T3, human Sortilin expressed on 293 / HEK293T cells (human, UniProt Q99523 78-830).
T3 construct: full-length recombinant human Sortilin; also called hSort; SORT1
Description: FACS, 293 cells.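 Also: antibodies at 10 µg/ml bound to cells for 1 h on ice, detected with PE-labelled anti-human secondary antibody by flow cytometry, reported as mean fluorescence intensity.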
Description: as §3

Test [4] concerns the target T4, mouse Sortilin Fc fusion protein (mouse; human, UniProt Q6PHU5 74-754).
T4 construct: whole entry named; also called mSort-Fc
Put plainly: ForteBio, avid.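 Also: whole IgG captured on AHQ sensors, then contacted with Sortilin Fc fusion antigen at 100 nM, followed by an off-rate phase in buffer.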
Description: as §1, §2

B1: S-74 (antibody, V domains shown)
VH: QVQLQESGPGLVKPSQTLSLTCTVSGGSISSGTYYWSWIRQHPGKGLEWIGYIYYSGSTYYNPSLKSRVTISVDTSKNQFSLKLSSVTAADTAVYYCARGVGRYRVADYWGQGTLVTVSS
VL: EIVMTQSPATLSLSPGERATLSCRASQSVSSYLAWYQQKPGQAPRLLIYDSSNRATGIPARFSGSGSGTDFTLTISSLEPEDFAVYYCQQETNMPPITFGGGTKVEIK
notes: IgG
Usually Kd stands for a measure of binding affinity in units of concentration. Low readings indicate tighter binding, high ones weaker binding. With B1, the Kd in test [1] was found to be 3.05 nM. Moreover, the MFI in test [2] came to 7300; in test [3] it was 9210.

B2: S-12 (antibody, V domains shown)
VH: QVQLVQSGAEVKKPGASVKVSCKASGYTFTSYGISWVRQAPGQGLEWMGWISAYNGNTNYAQKLQGRVTMTTDTSTSTAYMELRSLRSDDTAVYYCARDLPKYKWGWFDPWGQGTLVTVSS
VL: not shown
notes: IgG
B2 registered a Kd in test [1] of 9.35 nM. Also, the MFI is 18800 in test [2] and 9760 in test [3].

B3: S-6 (antibody, V domains shown)
VH: not shown
VL: EIVMTQSPATLSVSPGERATLSCRASQSVSSNLAWYQQKPGQAPRLLIYGASTRATGIPARFSGSGSGTEFTLTISSLQSEDFAVYYCQQVANYPRTFGGGTKVEIK
notes: IgG; also called S-06
Regarding B3, the MFI in test [2] is 25600; in test [3] it was 11100.

B4: S-83 (antibody, V domains shown)
VH: QLQLQESGPGLVKPSETLSLTCTVSGGSISSSSYYWGWIRQPPGKGLEWIGSIYYSGSTYYNPSLKSRVTISVDTSKNQFSLKLSSVTAADTAVYYCARGSPTWLRDYYMDVWGKGTTVTVSS
VL: B3 VL with M4L, V91Y, A92N, N93A, Y94F, R96P
notes: IgG
The molecule B4 yielded an equilibrium dissociation constant (Kd) in test [1] of 1.79 nM. In test [3], this molecule registered an MFI of 9300.

B5: S-61 (antibody, V domains shown)
VH: QVQLQESGPGLVKPSETLSLTCAVSGYSISSGYYWGWIRQPPGKGLEWIGSIYHSGSTYYNPSLKSRVTISVDTSKNQFSLKLSSVTAADTAVYYCARGSPRFYYGSGSYLDLFDIWGQGTMVTVSS
VL: B3 VL with Q90E, V91Y, A92L, R96I
notes: IgG
With B5, the Kd in test [1] worked out at 4.26 nM; in test [4], 2.45 nM. In addition, the values for the MFI in test [2] and in test [3] were 21800 and 7480, respectively.

B6: S-58 (antibody, V domains shown)
VH: QVQLQESGPGLVKPSETLSLTCAVSGYSISSGYYWGWIRQPPGKGLEWIGSIYHSGNTYYNPSLKSRVTISVDTSKNQFSLKLSSVTAADTAVYYCARGPPELGKMYFQHWGQGTLVTVSS
VL: B3 VL with M4L, V91D, A92R, N93K, Y94G, R96L
notes: IgG
For the molecule B6, the Kd in test [1] came to 2.59 nM; in test [4] it was 0.8 nM. The MFI turned out to be 15100 in test [2] and 7770 in test [3].

B7: S-51 (antibody, V domains shown)
VH: QVQLVESGGGVVQPGRSLRLSCAASGFTFSSYGMHWVRQAPGKGLEWVAVISYDGSNKYYADSVKGRFTISRDNSKNTLYLQMNSLRAEDTAVYYCAKGLEYYDSSRLYYPYYYYMDVWGKGTTVTVSS
VL: EIVLTQSPATLSLSPGERATLSCRASQSVSSYLAWYQQKPGQAPRLLIYDASKRATGIPARFSGSGSGTDFTLTISSLEPEDFAVYYCQQRSNYPITFGGGTKVEIK
notes: IgG
On to B7, for which the figures for the Kd in test [1] and in test [4] were 4.12 nM and 1.21 nM, respectively. In addition, the results for the MFI in test [2] and in test [3] were 21900 and 12200, respectively.

B8: S-40 (antibody, V domains shown)
VH: not shown
VL: B7 VL with L4M, K53N, N93A, Y94L, I96F
notes: IgG
The molecule B8 registered a Kd in test [1] of 2.43 nM. Moreover, the MFI in test [2] worked out at 2630; in test [3], 7410.

B9: S-64 (antibody, V domains shown)
VH: QVQLQESGPGLVKPSETLSLTCAVSGYSISSGYYWGWIRQPPGKGLEWIGSIYHSGSTYYNPSLKSRVTISVDTSKNQFSLKLSSVTAADTAVYYCARAEHRGPRYFDLWGRGTLVTVSS
VL: DIQMTQSPSSLSASVGDRVTITCRASQSINSYLNWYQQKPGKAPKLLIYAASSLQSGVPSRFSGSGSGTDFTLTISSLQPEDFATYYCQQLDSTPITFGGGTKVEIK
notes: IgG
On to B9, for which the Kd in test [4] came out at 24.2 nM. Further, the MFI in test [3] is 7930.

B10: S-65 (antibody, V domains shown)
VH: B9 VH with A99E, E100G, H101Q, R102L, G103P, P104T, R105G, Y106T, L109Y, R112Q
VL: not shown
notes: IgG
B10: in test [4], the Kd turned out to be 6.9 nM. Also, the values for the MFI in test [2] and in test [3] were 17900 and 8070, respectively.

B11: S-76 (antibody, V domains shown)
VH: QVQLQESGPGLVKPSQTLSLTCTVSGGSISSGGYYWSWIRQHPGKGLEWIGSIYYSGSTYYNPSLKSRVTISVDTSKNQFSLKLSSVTAADTAVYYCARGVGIQQQLVLGFDPWGQGTLVTVSS
VL: B9 VL with N30S, Y32F, Y49S, L91S, D92Y, S93R, T94E
notes: IgG
As for B11, in test [4], binding was put at a Kd of 19 nM. Moreover, the MFI worked out at 4180 in test [2] and 9680 in test [3].

B12: S-16 (antibody, V domains shown)
VH: QVQLVQSGAEVKKPGSSVKVSCKASGGTFSSYAISWVRQAPGQGLEWMGGIIPIFGTANYAQKFQGRVTITADESTSTAYMELSSLRSEDTAVYYCARSPYSGTRDFDLWGRGTLVTVSS
VL: B9 VL with L11V, S28G, N30S, Y32W, N34A, S53N, L91G, D92N, T94Y
notes: IgG
As for B12, the Kd in test [1] turned out to be 3.8 nM. In addition, in test [3], the MFI came out at 6280.

B13: S-81 (antibody, V domains shown)
VH: QLQLQESGPGLVKPSETLSLTCTVSGGSISSSSYYWGWIRQPPGKGLEWIGSIYYSGSTYYNPSLKSRVTISVDTSKNQFSLKLSSVTAADTAVYYCARERWDLGHGMDVWGQGTTVTVSS
VL: not shown
notes: IgG
In turn, B13 displayed a Kd in test [1] of 2.2 nM. For the same molecule, the MFI came out at 16600 in test [2] and 8940 in test [3].

B14: S-55 (antibody, V domains shown)
VH: QVQLQESGPGLVKPSETLSLTCAVSGYSISSGYYWGWIRQPPGKGLEWIGSIYHSGSTYYNPSLKSRVTISVDTSKNQFSLKLSSVTAADTAVYYCARGRPELGWDKYFQHWGQGTLVTVSS
VL: DIQMTQSPSSVSASVGDRVTITCRASQGISRWLAWYQQKPGKAPKLLIYAASSLQSGVPSRFSGSGSGTDFTLTISSLQPEDFATYYCQQANALPTFGGGTKVEIK
notes: IgG
With B14, the values for the Kd in test [1] and in test [4] were 2.28 nM and 1.13 nM, respectively. Besides, the MFI stood at 21400 in test [2] and 9480 in test [3].

B15: S-26 (antibody, V domains shown)
VH: EVQLVESGGGLVKPGGSLRLSCAASGFTFSSYSMNWVRQAPGKGLEWVSSISSSSSYIYYADSVKGRFTISRDNAKNSLYLQMNSLRAEDTAVYYCARDRLGRGYKWNWFDPWGQGTLVTVSS
VL: DIQMTQSPSSVSASVGDRVTITCRASQGIDSWLAWYQQKPGKAPKLLIYAASSLQSGVPSRFSGSGSGTDFTLTISSLQPEDFATYYCQQGNSLPPITFGGGTKVEIK
notes: IgG
In test [1], B15 showed a Kd of 2.88 nM. In addition, the MFI was 20900 in test [2] and 9020 in test [3].

B16: S-84 (antibody, V domains shown)
VH: QLQLQESGPGLVKPSETLSLTCTVSGGSISSSSYYWGWIRQPPGKGLEWIGSISYSGSTYYNPSLKSRVTISVDTSKNQFSLKLSSVTAADTAVYYCARGGTTWLVADVWGQGTMVTVSS
VL: not shown
notes: IgG
As to B16, in test [1], the Kd amounted to 4.4 nM. The MFI worked out at 15400 in test [2] and 9240 in test [3].
